Patent US7888090B2, “Mutants of O6-alkylguanine-DNA alkyltransferase” (Ecole Polytechnique Federale de Lausanne, priority 2004, dated 2011)
Residue numbers refer to the chain shown, from its start. Entries after “also recorded” stand apart in the source; their conditions may differ.

B1: Gly131Lys, Gly132Thr, Met134Leu, Arg135Ser, Asn157Gly, Ser159Glu: hAGT mutant with the listed mutations, selected by phage display (protein, UniProt P16455 1-207, looked up, variant G131K G132T M134L R135S N157G S159E)
Methylated-DNA--protein-cystei …: MDKDCEMKRTTLDSPLGKLELSGCEQGLHEIKLLGKGTSAADAVEVPAPAAVLGGPEPLMQCTAWLNAYFHQPEAIEEFPVPALHHPVFQQESFTRQVLWKLLKVVKFGEVISYQQLAALAGNPKAARAVKTALSGNPVPILIPCHRVVCSSGAVGGYEGGLAVKEWLLAHEGHRLGKPGLGGSSGLAGAWLKGAGATSGSPPAGRN
B2: Gln115Ser, Gln116His, Cys150Asn, Ser151Ile, Ser152Asn, Asn157Gly, Ser159Glu: hAGT mutant with the listed mutations, selected by phage display (protein, UniProt P16455 1-207, looked up, variant Q115S Q116H C150N S151I S152N N157G S159E)
Methylated-DNA--protein-cystei …: B1 Methylated-DNA--protein-cystei … with Q115S, Q116H, K131G, T132G, L134M, S135R, C150N, S151I, S152N
B3: Cys62Ala, Lys125Ala, Ala127Thr, Arg128Ala, Asn157Gly, Ser159Glu: hAGT mutant with the listed mutations (protein, UniProt P16455 1-207, looked up, variant C62A K125A A127T R128A N157G S159E)
Methylated-DNA--protein-cystei …: B1 Methylated-DNA--protein-cystei … with C62A, K125A, A127T, R128A, K131G, T132G, L134M, S135R
B4: truncated PGEG-hAGT: PGEG-hAGT (Asn157Gly, Ser159Glu) truncated after codon 182 (protein, UniProt P16455 1-207, looked up, variant N157G S159E del183-207)
Methylated-DNA--protein-cystei …: MDKDCEMKRTTLDSPLGKLELSGCEQGLHEIKLLGKGTSAADAVEVPAPAAVLGGPEPLMQCTAWLNAYFHQPEAIEEFPVPALHHPVFQQESFTRQVLWKLLKVVKFGEVISYQQLAALAGNPKAARAVGGAMRGNPVPILIPCHRVVCSSGAVGGYEGGLAVKEWLLAHEGHRLGKPGLG
B5: Ala154Thr: AGT mutant having all mutations of AGTM and additionally those listed (protein, UniProt P16455 1-207, looked up, variant C62A Q115S Q116H K125A A127T R128A G131K G132T M134L R135S C150N S151I S152N A154T N157G S159E del183-207)
Methylated-DNA--protein-cystei …: MDKDCEMKRTTLDSPLGKLELSGCEQGLHEIKLLGKGTSAADAVEVPAPAAVLGGPEPLMQATAWLNAYFHQPEAIEEFPVPALHHPVFQQESFTRQVLWKLLKVVKFGEVISYSHLAALAGNPAATAAVKTALSGNPVPILIPCHRVVNINGTVGGYEGGLAVKEWLLAHEGHRLGKPGLG
B6: Lys104Glu, Thr127Ala, Ala154Thr: AGT mutant having all mutations of AGTM and additionally those listed (protein, UniProt P16455 1-207, looked up, variant C62A K104E Q115S Q116H K125A R128A G131K G132T M134L R135S C150N S151I S152N A154T N157G S159E del183-207)
Methylated-DNA--protein-cystei …: B5 Methylated-DNA--protein-cystei … with K104E, T127A
B7: Asn150Glu, lle151Gly, Asn152Trp, Gly153Asn, Ala154Glu: AGT mutant having all mutations of AGTM and additionally those listed (protein, UniProt P16455 1-207, looked up, variant C62A Q115S Q116H K125A A127T R128A G131K G132T M134L R135S C150E S151G S152W G153N A154E N157G S159E del183-207)
Methylated-DNA--protein-cystei …: B5 Methylated-DNA--protein-cystei … with N150E, I151G, N152W, G153N, T154E
B8: Asn150Glu, lle151Gly, Asn152Arg, Gly153Glu, Ala154Arg: AGT mutant having all mutations of AGTM and additionally those listed (protein, UniProt P16455 1-207, looked up, variant C62A Q115S Q116H K125A A127T R128A G131K G132T M134L R135S C150E S151G S152R G153E A154R N157G S159E del183-207)
Methylated-DNA--protein-cystei …: B5 Methylated-DNA--protein-cystei … with N150E, I151G, N152R, G153E, T154R
B9: Lys32lle, Leu33Phe, Gly182Val: AGT mutant having all mutations of AGTM and additionally those listed (protein, UniProt P16455 1-207, looked up, variant K32I L33F C62A Q115S Q116H K125A A127T R128A G131K G132T M134L R135S C150N S151I S152N N157G S159E G182V del183-207)
Methylated-DNA--protein-cystei …: B5 Methylated-DNA--protein-cystei … with K32I, L33F, T154A, G182V

Tests used:
[1] = Activity assay with biotinylated O^6-benzylguanine (BG-Bt), Western blotting; format: biochemical; conditions: statement in words
Protocol: Activity towards O^6-benzylguanine substrates is measured as described by Juillerat et al., Chem Biol 10:313-317, 2003.
Activity assay: Purified mutated GST-AGT is incubated in vitro with a biotinylated O^6-benzylguanine (BG-Bt, substance 3a of Juillerat et al., Chem Biol 10:313-317, 2003). In a total reaction volume of 80 […]I, 0.2 µM GST-AGT are incubated with 1 µM substrate in 50 mM HEPES pH 7.2 and 1 mM DTT at room temperature. At several points of time an aliquot is quenched with 1 mM O^6-benzylguanine (Sigma) in SDS-Laemmli buffer and subjected to Western blotting analysis (neutravidin-peroxidase conjugate (PIERCE), Renaissance reagent plus (NEN)). The intensity of the corresponding bands is quantified by a Kodak Image Station 440.

[2] = test system: oligonucleotide SEQ ID NO:2 (modified in position 14); experiment: Reactivity against DNA-based substrates (BG-Cy3 assay with BG-modified oligonucleotide); format: biochemical; conditions: oligonucleotide SEQ ID NO:2 with O^6-benzyl at position 14; compared to PGEG-hAGT
Protocol: The ability of wild type AGT or mutant AGT to react with alkylated DNA substrates is measured as the reaction of its inactivation by a synthetic oligonucleotide containing O^6-benzylguanine (SEQ ID NO:2, modified in position 14). Subsequently, the reactions are quenched by incubation with biotinylated O^6-alkylguanine. Samples are subjected to Western blotting and detection with streptavidin derivates to obtain kinetic constants for these substrates. Alternatively, the ability of wild type or mutant AGT to react with alkylated DNA substrates is measured via its labeling efficiency in competition with a fluorescent substrate of AGT. The reaction kinetics of AGT with BG-Cy3 (O^6-benzylguanine coupled to Cy3) is followed by fluorescence intensity measurements at various concentrations of a competing synthetic oligonucleotide containing O^6-benzylguanine (SEQ ID NO:2, modified in position 14).
(§1) Reactivity against DNA-based substrates measured with a BG-Cy3 assay: BG-Cy3 is prepared by reacting the previously described O^6-(4-aminomethyl-benzyl)guanine (Keppler et al., NatureBiotechnol. 21:86-89, 2003) with the commercially available N-hydroxysuccinimide ester of Cy3, (Cy3-NHS, Amersham). The coupling reaction is performed at ambient temperature in N,N-dimethylformamide in the presence of 1 eq. of triethylamine. The BG-Cy3 conjugate is purified by reversed-phase HPLC on a C18-column by using linear gradients from 0.1% trifluoroacetic acid to acetonitrile. After solvent evaporation BG-Cy3 is dissolved in dimethyl sulfoxide and stored at −20° C. For measuring the reactivity with DNA-based substrates, a reaction mixture containing different concentrations (0 to 5 µM) of oligonucleotide SEQ ID NO:2 (modified in position 14), GST-AGT fusion protein at 0.2 µM and BG-Cy3 at […] in reaction buffer (50 mM HEPES, pH 7.2, 1 mM DTT, 200 mg/ml BSA) is incubated in microtiterplates. Fluorescence of the Cy3 derivative (excitation 519 nm, emission at 572 nm) is measured on a Spectramax Gemini plate reader (Molecular Devices).

[3] = Expression yield of soluble GST-AGT fusion protein; design: species or system E. coli; conditions: comparator not stated
Protocol: Expression yield is measured in E. coli or in any other of the standard production cells for genetically modified proteins, e.g. yeast, or preferably insect cells, CHO cells or HeLa cells. For quantifying expression yield, AGT fusion proteins may be chosen such that the fusion partner allows easy purification and quantification. For example, expression yield in E. coli is determined by measuring and comparing the yield of soluble and insoluble GST-wild type AGT fusion protein and GST-mutant AGT fusion protein from parallel E. coli expression cultures. Samples of the soluble fractions and insoluble fractions (i.e. the inclusion bodies) after cell lysis are subjected to SDS-PAGE, and the band staining intensities of the corresponding AGT fusion proteins are compared. Soluble protein is quantified after purification of the fusion protein from cell extracts by affinity chromatography (e.g. for GST-AGT fusion proteins by glutathione sepharose) by subjecting the purified fractions to a protein concentration assay (Bradford, Anal Biochem 72:248-54, 1976). The expression yield of similar proteins in the soluble fraction (difference in point mutations) can be used as a measure for protein stability in the unpurified as well as the purified state (Ohage et al., J Mol Biol 291:1119-1128, 1999; Wirtz et al., Protein Sci 8: 2245-50, 1999). Therefore, this is taken as a measure of folding stability and aggregation tendency.
Protein expression from this vector is carried out in E. coli strain BL21. An exponentially growing culture is induced with 0.5 mM IPTG, and the expression is carried out for 3.5 h at 24° C.
Purification: The harvested cells are resuspended in a buffer containing 50 mM phosphate, 0.5 M NaCl, 1 mM DTT, supplemented with 1 mM PMSF and 2 μg/ml aprotinin, and disrupted by lysozyme and sonification. The cell debris are separated by centrifugation at 40000×g. The extract is applied to pre-equilibrated glutathione sepharose (Amersham) which is then washed with 20 bed volumes (50 mM phosphate, 0.5 M NaCl, 1 mM DTT). The mutated GST-AGT fusion protein is eluted with 10 mM reduced glutathione in 50 mM Tris·HCl pH 7.9. The purified protein is dialyzed against 50 mM HEPES pH 7.2; 1 mM DTT; 30% glycerol and then stored at −80° C.
Determination of protein yield: Purity and relative amounts of the GST-AGT fusion proteins are compared by running samples on SDS-PAGE. UV spectra of the pure fractions are recorded using a Perkin Elmer Lambda 10. For protein samples containing no significant amount of DNA, the extinction at 280 nm as a measure of protein content is compared to that of wild type hAGT or PGEG-hAGT that were purified under the same conditions.

[4] = Competition of N^9-substituted and N^9-unsubstituted O^6-benzylguanine substrates; format: biochemical
Protocol: Such N^9-substituted O^6-alkylguanine substrates are the natural substrates of the wild type AGT. The ability of wild type AGT or mutant AGT to react with N^9-modified O^6-alkylguanine substrates is measured as the rate of its reaction with such substrates, e.g. with the low molecular weight N^9-cyclopentyl-O^6-benzylguanine in presence of biotinylated N^9-unsubstituted O^6-alkylguanine substrates in competition experiments. Subsequently, samples are subjected to Western blotting and detection with streptavidin derivates to obtain kinetic constants for these substrates. Alternatively, the reactivity towards such substrates is measured as the inhibition of the reaction of AGT with BG-Cy3. The reaction of AGT with BG-Cy3 is followed by an increase of Cy3 fluorescence intensity upon binding to AGT, after preincubation or in direct competition with the N^9-modified O^6-alkylguanine substrate.
Selected AGT mutants are subcloned into pGEX2T, expressed, purified and characterized as described in Example 1. Discrimination between N^9 substituted and N^9 unsubstituted O^6-benzylguanine substrates is evaluated by competition experiments for purified mutated GST-AGT in vitro with N^9-substituted and N′-unsubstituted O^6-benzylguanine. Aliquots of 0.2 μM GST-AGT are incubated with varying concentrations of N^9 substituted substrate (0, 0.5, up to 100 µM) and 0.5 µM biotinylated O^6-benzylguanine (BG-Bt, substance 3a of Juillerat et al., Chem Biol 10:313-317, 2003) in 50 mM HEPES pH 7.3 and 1 mM DTT at room temperature. After 45 min reactions are quenched by the addition of SDS-Laemmli buffer and heat denaturation. Samples are subjected to SDS-PAGE and Western blotting analysis (neutravidin-peroxidase conjugate (PIERCE), Renaissance reagent plus (NEN)). The intensity of the corresponding bands is quantified by a Kodak Image Station 440.

[5] = BG-Cy3 activity assay (reaction rate of AGT mutants); format: biochemical; conditions: divided by value for wild type hAGT
Protocol: as §1
The amplified products are cloned in fusion to the g3 gene of filamentous phage in the vector pAK100 via SfiI restriction sites. The resulting gene libraries are used for phage display as described under Example 4. The mutants of the libraries are selected with 5 to 50 nM of BG-Bt for 10 min. Selected mutants are subcloned into pGEX using the primers SEQ ID NO:3 and SEQ ID NO:13. The reaction rate of mutant AGTs is determined as described in Example 6, Reactivity against DNA-based substrates (BG-Cy3 assay).
For the activity assay purified GST fusion proteins were used for mutants marked with “p.” (prepared as described under Example 1); periplasmic extracts were used for mutants marked with “x.” (prepared as described under Example 2).

[6] = purified GST fusion proteins (p.)

| Molecule | activity towards O^6-benzylguanine substrates [1] | Relative reaction rate [5, 6] | further results |
| --- | --- | --- | --- |
| B1 | at least twofold further increased activity; also recorded: increased reactivity |  | reduction of reactivity with oligonucleotides [2]: at least 1000 fold; expression yield in E. coli [3]: increased expression yield; reduced reactivity towards O^6-alkyl-N^9-deoxyribosylguanine or N^9-cyclopentyl-O^6-benzylguanine ([4]; comparator not stated): substantially reduced reactivity; reduction of reactivity towards O^6-alkyl-N^9-deoxyribosylguanine or N^9-cyclopentyl-O^6-benzylguanine ([4]; compared to PGEG-hAGT): at least 10 fold |
| B2 | retains activity |  | expression yield in E. coli [3]: substantially increased expression yield |
| B3 | retains activity |  |  |
| B4 | retains activity |  |  |
| B5 |  | 14.90 |  |
| B6 |  |  | Relative reaction rate ([5]; periplasmic extracts (x.)): 12.34 |
| B7 |  | 11.97 |  |
| B8 |  | 11.20 |  |
| B9 |  |  | Relative reaction rate ([5]; periplasmic extracts (x.)): 9.48 |
